In US8673848 (Novartis, dated 2014):
Bridges are numbered along the chain shown (N, C = ends). [ ]: non-standard residue; d: D form. The star is where a group is joined. Bip = N[C@@H](Cc1ccc(-c2ccccc2)cc1)C(=O)O; pGlu = O=C1CC[C@@H](C(=O)O)N1; Lauroyl = CCCCCCCCCCCC(=O)*; Nle = CCCC[C@H](N)C(=O)O; Orn = NCCC[C@H](N)C(=O)O; Dab = NCC[C@H](N)C(=O)O

T1: human APJ receptor (hAPJ) (human, UniProt P35414 1-380)
T1 sequence (looked up): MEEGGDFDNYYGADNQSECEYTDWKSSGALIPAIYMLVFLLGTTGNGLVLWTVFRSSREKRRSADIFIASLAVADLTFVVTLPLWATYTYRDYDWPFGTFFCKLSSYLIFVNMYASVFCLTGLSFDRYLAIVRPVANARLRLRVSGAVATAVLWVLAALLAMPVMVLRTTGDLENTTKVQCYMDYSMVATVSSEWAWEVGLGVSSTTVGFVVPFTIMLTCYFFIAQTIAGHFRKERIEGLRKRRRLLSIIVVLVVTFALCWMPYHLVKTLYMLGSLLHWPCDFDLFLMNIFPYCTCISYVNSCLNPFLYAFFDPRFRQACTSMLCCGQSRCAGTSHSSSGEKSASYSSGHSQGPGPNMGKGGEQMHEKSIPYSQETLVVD


Molecular target: T1, human APJ receptor (hAPJ)
Experiment: cell-based or functional assay

Binder	hAPJ Ca2+ Flux EC50 [nM]
[pGlu]RPFLCHKGP[Nle]CF-OH (disulfide 6-12; SMILES CCCC[C@@H]1NC(=O)[C@@H]2CCCN2C(=O)CNC(=O)[C@H](CCCCN)NC(=O)[C@H](Cc2c[nH]cn2)NC(=O)[C@@H](NC(=O)[C@H](CC(C)C)NC(=O)[C@H](Cc2ccccc2)NC(=O)[C@@H]2CCCN2C(=O)[C@H](CCCNC(=N)N)NC(=O)[C@@H]2CCC(=O)N2)CSSC[C@@H](C(=O)N[C@@H](Cc2ccccc2)C(=O)O)NC1=O) [Example 36: pE-R-P-F-L-C-H-K-G-P-Nle-C-F-OH]	7.36
[pGlu]RPRLCK(Lauroyl)KGP[Nle]CF-OH (disulfide 6-12; SMILES CCCCCCCCCCCC(=O)NCCCC[C@@H]1NC(=O)[C@@H](NC(=O)[C@H](CC(C)C)NC(=O)[C@H](CCCNC(=N)N)NC(=O)[C@@H]2CCCN2C(=O)[C@H](CCCNC(=N)N)NC(=O)[C@@H]2CCC(=O)N2)CSSC[C@@H](C(=O)N[C@@H](Cc2ccccc2)C(=O)O)NC(=O)[C@H](CCCC)NC(=O)[C@@H]2CCCN2C(=O)CNC(=O)[C@H](CCCCN)NC1=O) [Example 27: pE-R-P-R-L-C-K(Lauroyl)-K-G-P-Nle-C-F-OH]	65.5
[pGlu]EPRLCHKGP[Nle]CF-OH (disulfide 6-12; SMILES CCCC[C@@H]1NC(=O)[C@@H]2CCCN2C(=O)CNC(=O)[C@H](CCCCN)NC(=O)[C@H](Cc2c[nH]cn2)NC(=O)[C@@H](NC(=O)[C@H](CC(C)C)NC(=O)[C@H](CCCNC(=N)N)NC(=O)[C@@H]2CCCN2C(=O)[C@H](CCC(=O)O)NC(=O)[C@@H]2CCC(=O)N2)CSSC[C@@H](C(=O)N[C@@H](Cc2ccccc2)C(=O)O)NC1=O) [Example 32: pE-E-P-R-L-C-H-K-G-P-Nle-C-F-OH]	518
[pGlu]RKRLCHKGP[Nle]CF-OH (disulfide 6-12; SMILES CCCC[C@@H]1NC(=O)[C@@H]2CCCN2C(=O)CNC(=O)[C@H](CCCCN)NC(=O)[C@H](Cc2c[nH]cn2)NC(=O)[C@@H](NC(=O)[C@H](CC(C)C)NC(=O)[C@H](CCCNC(=N)N)NC(=O)[C@H](CCCCN)NC(=O)[C@H](CCCNC(=N)N)NC(=O)[C@@H]2CCC(=O)N2)CSSC[C@@H](C(=O)N[C@@H](Cc2ccccc2)C(=O)O)NC1=O) [Example 34: pE-R-K-R-L-C-H-K-G-P-Nle-C-F-OH]	3.21
[pGlu]RDRLCHKGP[Nle]CF-OH (disulfide 6-12; SMILES CCCC[C@@H]1NC(=O)[C@@H]2CCCN2C(=O)CNC(=O)[C@H](CCCCN)NC(=O)[C@H](Cc2c[nH]cn2)NC(=O)[C@@H](NC(=O)[C@H](CC(C)C)NC(=O)[C@H](CCCNC(=N)N)NC(=O)[C@H](CC(=O)O)NC(=O)[C@H](CCCNC(=N)N)NC(=O)[C@@H]2CCC(=O)N2)CSSC[C@@H](C(=O)N[C@@H](Cc2ccccc2)C(=O)O)NC1=O) [Example 35: pE-R-D-R-L-C-H-K-G-P-Nle-C-F-OH]	11.1
[pGlu]RPRDCHKGP[Nle]CF-OH (disulfide 6-12; SMILES CCCC[C@@H]1NC(=O)[C@@H]2CCCN2C(=O)CNC(=O)[C@H](CCCCN)NC(=O)[C@H](Cc2c[nH]cn2)NC(=O)[C@@H](NC(=O)[C@H](CC(=O)O)NC(=O)[C@H](CCCNC(=N)N)NC(=O)[C@@H]2CCCN2C(=O)[C@H](CCCNC(=N)N)NC(=O)[C@@H]2CCC(=O)N2)CSSC[C@@H](C(=O)N[C@@H](Cc2ccccc2)C(=O)O)NC1=O) [Example 42: pE-R-P-R-D-C-H-K-G-P-Nle-C-F-OH]	92.8
[pGlu]RPRLCHEGP[Nle]CF-OH (disulfide 6-12; SMILES CCCC[C@@H]1NC(=O)[C@@H]2CCCN2C(=O)CNC(=O)[C@H](CCC(=O)O)NC(=O)[C@H](Cc2c[nH]cn2)NC(=O)[C@@H](NC(=O)[C@H](CC(C)C)NC(=O)[C@H](CCCNC(=N)N)NC(=O)[C@@H]2CCCN2C(=O)[C@H](CCCNC(=N)N)NC(=O)[C@@H]2CCC(=O)N2)CSSC[C@@H](C(=O)N[C@@H](Cc2ccccc2)C(=O)O)NC1=O) [Example 38: pE-R-P-R-L-C-H-E-G-P-Nle-C-F-OH]	182
[pGlu]RPRL[Orn]HFGP[Nle]D-Phenethylamine (lactam 6-12) [Example 3: pE-R-P-R-L-Orn-H-F-G-P-Nle-D-Phenethylamine]	1010
[pGlu]RPRL[Dab]HFGP[Nle]D-Phenethylamine (lactam 6-12) [Example 4: pE-R-P-R-L-Dab-H-F-G-P-Nle-D-Phenethylamine]	747
[pGlu]RPRLCHKDP[Nle]CF-OH (disulfide 6-12; SMILES CCCC[C@@H]1NC(=O)[C@@H]2CCCN2C(=O)[C@H](CC(=O)O)NC(=O)[C@H](CCCCN)NC(=O)[C@H](Cc2c[nH]cn2)NC(=O)[C@@H](NC(=O)[C@H](CC(C)C)NC(=O)[C@H](CCCNC(=N)N)NC(=O)[C@@H]2CCCN2C(=O)[C@H](CCCNC(=N)N)NC(=O)[C@@H]2CCC(=O)N2)CSSC[C@@H](C(=O)N[C@@H](Cc2ccccc2)C(=O)O)NC1=O) [Example 39: pE-R-P-R-L-C-H-K-D-P-Nle-C-F-OH]	8.2
[pGlu][dR]PRLCHKGP[Nle]CF-OH (disulfide 6-12; SMILES CCCC[C@@H]1NC(=O)[C@@H]2CCCN2C(=O)CNC(=O)[C@H](CCCCN)NC(=O)[C@H](Cc2c[nH]cn2)NC(=O)[C@@H](NC(=O)[C@H](CC(C)C)NC(=O)[C@H](CCCNC(=N)N)NC(=O)[C@@H]2CCCN2C(=O)[C@@H](CCCNC(=N)N)NC(=O)[C@@H]2CCC(=O)N2)CSSC[C@@H](C(=O)N[C@@H](Cc2ccccc2)C(=O)O)NC1=O) [Example 30: pE-r-P-R-L-C-H-K-G-P-Nle-C-F-OH]	6.05
[pGlu]R[dP]RLCHKGP[Nle]CF-OH (disulfide 6-12; SMILES CCCC[C@@H]1NC(=O)[C@@H]2CCCN2C(=O)CNC(=O)[C@H](CCCCN)NC(=O)[C@H](Cc2c[nH]cn2)NC(=O)[C@@H](NC(=O)[C@H](CC(C)C)NC(=O)[C@H](CCCNC(=N)N)NC(=O)[C@H]2CCCN2C(=O)[C@H](CCCNC(=N)N)NC(=O)[C@@H]2CCC(=O)N2)CSSC[C@@H](C(=O)N[C@@H](Cc2ccccc2)C(=O)O)NC1=O) [Example 33: pE-R-p-R-L-C-H-K-G-P-Nle-C-F-OH]	8.1
[pGlu]RPR[Bip]CHKGP[Nle]CF-OH (disulfide 6-12; SMILES CCCC[C@@H]1NC(=O)[C@@H]2CCCN2C(=O)CNC(=O)[C@H](CCCCN)NC(=O)[C@H](Cc2c[nH]cn2)NC(=O)[C@@H](NC(=O)[C@H](Cc2ccc(-c3ccccc3)cc2)NC(=O)[C@H](CCCNC(=N)N)NC(=O)[C@@H]2CCCN2C(=O)[C@H](CCCNC(=N)N)NC(=O)[C@@H]2CCC(=O)N2)CSSC[C@@H](C(=O)N[C@@H](Cc2ccccc2)C(=O)O)NC1=O) [Example 41: pE-R-P-R-(4-PhF)-C-H-K-G-P-Nle-C-F-OH]	6.91
[pGlu]RPRLCHKGP[Nle]CK(Lauroyl)-OH (disulfide 6-12; SMILES CCCCCCCCCCCC(=O)NCCCC[C@H](NC(=O)[C@@H]1CSSC[C@H](NC(=O)[C@H](CC(C)C)NC(=O)[C@H](CCCNC(=N)N)NC(=O)[C@@H]2CCCN2C(=O)[C@H](CCCNC(=N)N)NC(=O)[C@@H]2CCC(=O)N2)C(=O)N[C@@H](Cc2c[nH]cn2)C(=O)N[C@@H](CCCCN)C(=O)NCC(=O)N2CCC[C@H]2C(=O)N[C@@H](CCCC)C(=O)N1)C(=O)O) [Example 26: pE-R-P-R-L-C-H-K-G-P-Nle-C-K(Lauroyl)-OH]	29.8
[pGlu]RPELCHKGP[Nle]CF-OH (disulfide 6-12; SMILES CCCC[C@@H]1NC(=O)[C@@H]2CCCN2C(=O)CNC(=O)[C@H](CCCCN)NC(=O)[C@H](Cc2c[nH]cn2)NC(=O)[C@@H](NC(=O)[C@H](CC(C)C)NC(=O)[C@H](CCC(=O)O)NC(=O)[C@@H]2CCCN2C(=O)[C@H](CCCNC(=N)N)NC(=O)[C@@H]2CCC(=O)N2)CSSC[C@@H](C(=O)N[C@@H](Cc2ccccc2)C(=O)O)NC1=O) [Example 40: pE-R-P-E-L-C-H-K-G-P-Nle-C-F-OH]	7.99
[pGlu]RPRKCHKGP[Nle]CF-OH (disulfide 6-12; SMILES CCCC[C@@H]1NC(=O)[C@@H]2CCCN2C(=O)CNC(=O)[C@H](CCCCN)NC(=O)[C@H](Cc2c[nH]cn2)NC(=O)[C@@H](NC(=O)[C@H](CCCCN)NC(=O)[C@H](CCCNC(=N)N)NC(=O)[C@@H]2CCCN2C(=O)[C@H](CCCNC(=N)N)NC(=O)[C@@H]2CCC(=O)N2)CSSC[C@@H](C(=O)N[C@@H](Cc2ccccc2)C(=O)O)NC1=O) [Example 37: pE-R-P-R-K-C-H-K-G-P-Nle-C-F-OH]	1.4
[pGlu]RCRLCCKGP[Nle]CF-OH (disulfide 6-12, 3-7) [Example 29: pE-R-C-R-L-C-C-K-G-P-Nle-C-F-OH]	4.33
[pGlu]RPCLCCKGP[Nle]CF-OH (disulfide 6-12, 4-7) [Example 28: pE-R-P-C-L-C-C-K-G-P-Nle-C-F-OH]	5.68
[pGlu]FPRLCHKGP[Nle]CF-OH (disulfide 6-12; SMILES CCCC[C@@H]1NC(=O)[C@@H]2CCCN2C(=O)CNC(=O)[C@H](CCCCN)NC(=O)[C@H](Cc2c[nH]cn2)NC(=O)[C@@H](NC(=O)[C@H](CC(C)C)NC(=O)[C@H](CCCNC(=N)N)NC(=O)[C@@H]2CCCN2C(=O)[C@H](Cc2ccccc2)NC(=O)[C@@H]2CCC(=O)N2)CSSC[C@@H](C(=O)N[C@@H](Cc2ccccc2)C(=O)O)NC1=O) [Example 31: pE-F-P-R-L-C-H-K-G-P-Nle-C-F-OH]	84.1
